Measured values from patent publication US20220098240A1 (FUJIFILM, published 2022).
Bridge positions count the residues as written; N and C are the ends. Square brackets hold non-standard residues; d marks the D form. Ends that are not written are not given here. COCH2 = acetyl group that carries the bridge; Pen = CC(C)(S)[C@H](N)C(=O)O; hCys = N[C@@H](CCS)C(=O)O; Orn = NCCC[C@H](N)C(=O)O; Dab = NCC[C@H](N)C(=O)O; Dap = NC[C@H](N)C(=O)O

B1: Cyclic peptide 17 (peptide)
peptide: {CH2CO}-I[hCys]RGDK(COCH2)FCKKK
modifications: thioether 2-6 via Ac; thioether N-8; not fully specified
notes: bicyclic; all residues L; immobilised on CM5 chip through amino groups
B2: Cyclic peptide 12 (peptide)
peptide: XCRGDXFCKKK
modifications: not fully specified; thioether: I1 alpha-NH2 through acetyl to C8; thioether: C2 to K(acetyl)6
notes: as for B1
B3: Cyclic peptide 49 (peptide)
peptide: ACDCRGDCFCGKKK
modifications: disulfide 2-10, 4-8
notes: bicyclic comparative peptide; all residues L; immobilised on CM5 chip through amino groups
B4: Cyclic peptide 44 (peptide)
peptide: {CH2CO}-V[hCys]RGDK(COCH2)F[hCys]AKKK
modifications: thioether 2-6, N-8
B5: Cyclic peptide 37 (peptide)
peptide: KKK[hCys][hCys]RGDK(COCH2)FK(COCH2)A
modifications: thioether 4-11, 5-9
B6: Cyclic peptide 26 (peptide)
peptide: XXRGDXFXKKK
modifications: not fully specified; thioether: L1 alpha-NH2 through acetyl to Hcy8; thioether: Hcy2 to K(acetyl)6
B7: Cyclic peptide 5 (peptide)
peptide: {CH2CO}-I[hCys]RGD[Dap](COCH2)F[hCys]KKK
modifications: thioether 2-6, N-8
B8: Cyclic peptide 14 (peptide)
peptide: {CH2CO}-I[Dap](COCH2)RGDCF[hCys]KKK
modifications: thioether 2-6 via Ac; thioether N-8; not fully specified
notes: as for B1
B9: Cyclic peptide 24 (peptide)
peptide: {CH2CO}-E[Orn]RGD[hCys]F[Pen]KKK
modifications: thioether N-8; bridge 2-6; not fully specified (residue 2, bridges); printed as E RGD- -F-(Pen)-KKK
B10: Cyclic peptide 35 (peptide)
peptide: {CH2CO}-I[hCys]RGDK(COCH2)F[hCys]AKKK
modifications: thioether 2-6, N-8
B11: Cyclic peptide 31 (peptide)
peptide: {CH2CO}-I[hCys]RGDK(COCH2)P[hCys]KKK
modifications: thioether 2-6, N-8
B12: Cyclic peptide 34 (peptide)
peptide: {CH2CO}-I[hCys]RGDK(COCH2)FA[hCys]KKK
modifications: thioether 2-6, N-9
B13: Cyclic peptide 41 (peptide)
peptide: {CH2CO}-V[hCys]RGD[Orn](COCH2)F[hCys]KKK
modifications: thioether 2-6, N-8
B14: Cyclic peptide 11 (peptide)
peptide: {CH2CO}-I[hCys]RGDK(COCH2)F[hCys]KKK
modifications: thioether 2-6, N-8
B15: Cyclic peptide 28 (peptide)
peptide: {CH2CO}-V[hCys]RGDK(COCH2)F[hCys]KKK
modifications: thioether 2-6, N-8
B16: Cyclic peptide 21 (peptide)
peptide: K[Dap]RGD[hCys]F[hCys]KKK
modifications: bridge N-8, 2-6; not fully specified (N-terminus, bridges); printed as K RGD- -F-(Hcy)-KKK
B17: Cyclic peptide 36 (peptide)
peptide: A[hCys][hCys]RGDK(COCH2)FK(COCH2)KKK
modifications: thioether 2-9, 3-7
B18: Cyclic peptide 20 (peptide)
peptide: {CH2CO}-ICRGD[Dab](COCH2)F[hCys]KKK
modifications: thioether 2-6 via Ac; thioether N-8; not fully specified
notes: as for B1
B19: Cyclic peptide 27 (peptide)
peptide: {CH2CO}-T[hCys]RGDK(COCH2)F[hCys]KKK
modifications: thioether 2-6, N-8
B20: Cyclic peptide 38 (peptide)
peptide: {CH2CO}-V[Orn](COCH2)RGD[hCys]F[hCys]KKK
modifications: thioether 2-6, N-8
B21: Cyclic peptide 29 (peptide)
peptide: {CH2CO}-D[hCys]RGDK(COCH2)F[hCys]KKK
modifications: thioether 2-6, N-8
B22: Cyclic peptide 22 (peptide)
peptide: {CH2CO}-I[hCys]RGDK(COCH2)F[hCys]K
modifications: thioether 2-6, N-8
B23: Cyclic peptide 1 (peptide)
peptide: {CH2CO}-I[Dap](COCH2)RGD[hCys]F[hCys]KKK
modifications: thioether 2-6, N-8
B24: Cyclic peptide 46 (peptide)
peptide: {CH2CO}-E[hCys]RGDK(COCH2)F[hCys]AKKK
modifications: thioether 2-6, N-8
B25: Cyclic peptide 4 (peptide)
peptide: {CH2CO}-IK(COCH2)RGD[hCys]F[hCys]KKK
modifications: thioether 2-6, N-8
B26: Cyclic peptide 18 (peptide)
peptide: {CH2CO}-ICRGDK(COCH2)F[hCys]KKK
modifications: thioether 2-6 via Ac; thioether N-8; not fully specified
notes: as for B1
B27: Cyclic peptide 40 (peptide)
peptide: {CH2CO}-E[Orn](COCH2)RGD[hCys]F[hCys]KKK
modifications: thioether 2-6, N-8
B28: Cyclic peptide 15 (peptide)
peptide: {CH2CO}-I[Orn](COCH2)RGD[hCys]FCKKK
modifications: thioether 2-6 via Ac; thioether N-8; not fully specified
notes: as for B1
B29: Cyclic peptide 39 (peptide)
peptide: {CH2CO}-D[Orn]RGD[hCys]F[hCys]KKK
modifications: thioether N-8; bridge 2-6; not fully specified (residue 2, bridges)
B30: Cyclic peptide 45 (peptide)
peptide: {CH2CO}-D[hCys]RGDK(COCH2)F[hCys]AKKK
modifications: thioether 2-6, N-8
B31: Cyclic peptide 42 (peptide)
peptide: {CH2CO}-D[hCys]RGD[Orn](COCH2)F[hCys]KKK
modifications: thioether 2-6, N-8
B32: Cyclic peptide 43 (peptide)
peptide: {CH2CO}-E[hCys]RGD[Orn](COCH2)F[hCys]KKK
modifications: thioether 2-6, N-8
B33: Cyclic peptide 23 (peptide)
peptide: {CH2CO}-I[Orn](COCH2)RGD[hCys]F[Pen]KKK
modifications: thioether 2-6, N-8
B34: Cyclic peptide 8 (peptide)
peptide: {CH2CO}-ICRGD[Dab](COCH2)FCKKK
modifications: thioether 2-6 via Ac; thioether N-8
notes: as for B1
B35: Cyclic peptide 25 (peptide)
peptide: {CH2CO}-Y[hCys]RGDK(COCH2)F[hCys]KKK
modifications: thioether 2-6, N-8
B36: Cyclic peptide 32 (peptide)
peptide: {CH2CO}-I[hCys]RGDK(COCH2)Y[hCys]KKK
modifications: thioether 2-6, N-8
B37: Cyclic peptide 30 (peptide)
peptide: {CH2CO}-E[hCys]RGDK(COCH2)F[hCys]KKK
modifications: thioether 2-6, N-8
B38: Cyclic peptide 3 (peptide)
peptide: {CH2CO}-I[Orn](COCH2)RGD[hCys]F[hCys]KKK
modifications: thioether 2-6, N-8
B39: Cyclic peptide 48 (peptide)
peptide: {CH2CO}-KCRGDCFCKKK
modifications: disulfide 2-6; thioether N-8
notes: as for B3
B40: Cyclic peptide 47 (peptide)
peptide: {CH2CO}-E[hCys]RGD[Orn](COCH2)F[hCys]AKKK
modifications: thioether 2-6, N-8

Tests used:
human integrin αvβ5 [1] = biological target: T1, human integrin αvβ5 (human, UniProt P06756 31-992; P18084 24-719); assay: SPR, Biacore 3000, peptide immobilised on CM5 chip, integrin 30-1000 nM flowed; grade A = dissociation constant 50 nM or less
T1 construct: soluble analyte in SPR at 30, 100, 300 and 1,000 nM in HEPES buffer with 5 mM magnesium chloride; heterodimer of an alpha and a beta chain
Protocol: (§1) However, only for the cyclic peptide 22, in which the number of lysine residues having an amino group as the immobilizing functional group was 1, the sample solution to be supplied to the sensor chip was set to 5,000 μL instead of 300 μL. Similarly, 70 μL of the mixed aqueous solution of 0.2 M EDC and 0.04 M NHS was added to another flow channel of the same sensor chip without immobilizing the sample, and then blocking treatment and washing treatment were carried out. Hereinafter, the obtained immobilization-treated sensor chip is referred to as an “immobilization-treated sensor chip A”.
(§2) After adding human integrin αvβ5 for 10 minutes at 25° C., which was diluted to 30 nM using a HEPES buffer solution to which magnesium chloride was added to 5 mM, in each flow channel of the immobilization-treated sensor chip A prepared in (1) above, the same HEPES buffer solution (containing 5 mM magnesium chloride) was allowed to flow as a running buffer for 30 minutes, and measurement was carried out with Biacore 3000.
(§3) Then, a regeneration treatment of removing human integrin αvβ5 was carried out by allowing a 0.5 M EDTA aqueous solution to flow through each flow channel for 10 minutes. Further, the above-described measurement process consisting of adding integrin for 10 minutes, allowing a running buffer to flow for 30 minutes, carrying out measurement with Biacore 3000, and carrying out regeneration treatment with 0.5 M EDTA aqueous solution was carried out in the same manner for 100 nM human integrin αvβ5, 300 nM human integrin αvβ5, and 1,000 nM human integrin αvβ5. Dissociation constant between the cyclic peptide and human integrin αvβ5 was calculated from the difference between the value measured by Biacore 3000 in the flow channel immobilized with the cyclic peptide and the value measured by Biacore 3000 in the flow channel unimmobilized with the cyclic peptide, in a case where each concentration of human integrin αvβ5 was allowed to flow, and the integrin binding property was evaluated according to the following evaluation standards. It is preferable that the evaluation result satisfies the evaluation standard A, B, or C.

human integrin αvβ5 [2] = biological target: T1, human integrin αvβ5; assay: SPR, Biacore 3000, peptide immobilised on CM5 chip, integrin 30-1000 nM flowed; grade B = dissociation constant more than 50 nM and 100 nM or less
Protocol: as §1, §2, §3

T1 sequence (P06756 31-992, chain 1 of 2): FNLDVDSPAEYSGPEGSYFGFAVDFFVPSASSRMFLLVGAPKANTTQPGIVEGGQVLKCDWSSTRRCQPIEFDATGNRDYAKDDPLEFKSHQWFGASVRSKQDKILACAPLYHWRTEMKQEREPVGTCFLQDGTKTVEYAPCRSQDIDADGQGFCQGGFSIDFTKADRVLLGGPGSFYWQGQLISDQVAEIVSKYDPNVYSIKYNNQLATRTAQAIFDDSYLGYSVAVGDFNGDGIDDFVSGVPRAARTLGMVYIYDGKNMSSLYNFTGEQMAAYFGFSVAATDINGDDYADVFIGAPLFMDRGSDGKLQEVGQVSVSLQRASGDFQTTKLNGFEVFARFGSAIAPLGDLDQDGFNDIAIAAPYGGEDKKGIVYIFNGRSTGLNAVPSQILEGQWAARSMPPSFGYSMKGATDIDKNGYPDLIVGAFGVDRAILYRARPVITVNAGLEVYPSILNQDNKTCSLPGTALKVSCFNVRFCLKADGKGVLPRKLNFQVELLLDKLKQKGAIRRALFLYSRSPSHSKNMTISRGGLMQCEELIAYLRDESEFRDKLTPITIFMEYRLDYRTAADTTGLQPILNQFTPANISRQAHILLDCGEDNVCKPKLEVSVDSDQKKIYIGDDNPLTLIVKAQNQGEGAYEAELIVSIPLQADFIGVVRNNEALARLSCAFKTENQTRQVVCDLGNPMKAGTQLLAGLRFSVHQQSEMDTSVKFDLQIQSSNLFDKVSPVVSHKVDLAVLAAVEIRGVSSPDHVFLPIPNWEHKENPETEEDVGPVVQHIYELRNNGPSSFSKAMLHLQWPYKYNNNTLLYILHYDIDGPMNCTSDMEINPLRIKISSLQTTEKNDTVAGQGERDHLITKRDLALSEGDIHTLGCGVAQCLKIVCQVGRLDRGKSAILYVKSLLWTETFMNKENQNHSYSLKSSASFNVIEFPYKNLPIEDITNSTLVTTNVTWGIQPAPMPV
T1 sequence (P18084 24-719, chain 2 of 2): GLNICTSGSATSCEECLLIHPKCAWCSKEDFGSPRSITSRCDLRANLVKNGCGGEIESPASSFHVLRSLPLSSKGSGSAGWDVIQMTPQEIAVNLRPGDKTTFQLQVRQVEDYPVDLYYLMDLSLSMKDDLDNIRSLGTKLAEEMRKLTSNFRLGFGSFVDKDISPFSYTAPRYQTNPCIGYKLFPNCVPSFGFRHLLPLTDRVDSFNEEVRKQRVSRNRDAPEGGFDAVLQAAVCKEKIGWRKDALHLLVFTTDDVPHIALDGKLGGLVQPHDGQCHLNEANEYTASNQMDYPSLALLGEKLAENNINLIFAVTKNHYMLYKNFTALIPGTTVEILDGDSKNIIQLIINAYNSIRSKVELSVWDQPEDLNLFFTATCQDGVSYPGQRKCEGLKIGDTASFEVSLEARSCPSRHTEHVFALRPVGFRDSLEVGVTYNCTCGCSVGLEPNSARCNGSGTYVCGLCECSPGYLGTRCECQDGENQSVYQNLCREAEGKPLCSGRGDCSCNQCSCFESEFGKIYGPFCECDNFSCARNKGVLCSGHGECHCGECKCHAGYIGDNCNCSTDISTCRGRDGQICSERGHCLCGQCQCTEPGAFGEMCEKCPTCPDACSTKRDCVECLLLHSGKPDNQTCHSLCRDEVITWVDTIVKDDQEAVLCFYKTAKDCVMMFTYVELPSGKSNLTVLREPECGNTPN

Row | Binder | dissociation constant (KD) (human integrin αvβ5 [1]) | dissociation constant (human integrin αvβ5 [1]) | also measured
1 | B1 | ≤ 50 nM |  | 
2 | B2 | ≤ 50 nM |  | 
3 | B3 |  | ≤ 50 nM | 
4 | B4 |  | < 50 nM | 
5 | B5 |  |  | dissociation constant (human integrin αvβ5 [2]): 50 to 100 nM
6 | B6 |  | < 50 nM | 
7 | B7 |  |  | dissociation constant (KD) (human integrin αvβ5 [2]): 50 to 100 nM
8 | B8 | ≤ 50 nM |  | 
9 | B9 | < 50 nM |  | 
10 | B10 |  | < 50 nM | 
11 | B11 |  |  | dissociation constant (human integrin αvβ5 [2]): 50 to 100 nM
12 | B12 |  |  | dissociation constant (human integrin αvβ5 [2]): 50 to 100 nM
13 | B13 |  |  | dissociation constant (human integrin αvβ5 [2]): 50 to 100 nM
14 | B14 | < 50 nM |  | 
15 | B15 |  | < 50 nM | 
16 | B16 |  |  | dissociation constant (KD) (human integrin αvβ5 [2]): 50 to 100 nM
17 | B17 |  |  | dissociation constant (human integrin αvβ5 [2]): 50 to 100 nM
18 | B18 | ≤ 50 nM |  | 
19 | B19 |  | < 50 nM | 
20 | B20 |  | < 50 nM | 

Row | Binder | dissociation constant (KD) (human integrin αvβ5 [1]) | dissociation constant (human integrin αvβ5 [1]) | also measured
21 | B21 |  | < 50 nM | 
22 | B22 | < 50 nM |  | 
23 | B23 |  |  | dissociation constant (KD) (human integrin αvβ5 [2]): 50 to 100 nM
24 | B24 |  | < 50 nM | 
25 | B25 |  |  | dissociation constant (KD) (human integrin αvβ5 [2]): 50 to 100 nM
26 | B26 | ≤ 50 nM |  | 
27 | B27 |  | < 50 nM | 
28 | B28 | ≤ 50 nM |  | 
29 | B29 |  | < 50 nM | 
30 | B30 |  | < 50 nM | 
31 | B31 |  | < 50 nM | 
32 | B32 |  | < 50 nM | 
33 | B33 | < 50 nM |  | 
34 | B34 | ≤ 50 nM |  | 
35 | B35 |  | < 50 nM | 
36 | B36 |  |  | dissociation constant (human integrin αvβ5 [2]): 50 to 100 nM
37 | B37 |  | < 50 nM | 
38 | B38 | < 50 nM |  | 
39 | B39 |  | ≤ 50 nM | 
40 | B40 |  | < 50 nM | 
